Assay results reported in PMC7847540, “ClpX Is Essential and Activated by Single-Strand DNA Binding Protein in Mycobacteria” (Journal of Bacteriology, 2020).

Target: the molecule itself
Test: size-based filtration (300-kDa cutoff filter)

B1: N-terminally 6×His-tagged truncated form of ClpX (lacking the first 60 amino acids) (enzyme)
chain: not shown
notes: ClpX ATPase, M. tuberculosis, lacking the first 60 amino acids; also called hexameric ClpX
- stoichiometry N: 6
